Measurements published in paper PMC10397247.

Columns and labels:
O7 = target: T1, O7; test: two-hybrid library CCNG1;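 also: natural log of median RNA to DNA barcode read ratio; higher means stronger binding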
T1 chain: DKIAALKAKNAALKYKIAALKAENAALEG

O9 = target: T2, O9; test: two-hybrid library CCNG1;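 also: natural log of median RNA to DNA barcode read ratio; higher means stronger binding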
T2 chain: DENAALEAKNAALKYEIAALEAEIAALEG

O6 = target: T3, O6; test: two-hybrid library CCNG1;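 also: natural log of median RNA to DNA barcode read ratio; higher means stronger binding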
T3 chain: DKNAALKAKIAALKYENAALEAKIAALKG

O8 = target: T4, O8; test: two-hybrid library CCNG1;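 also: natural log of median RNA to DNA barcode read ratio; higher means stronger binding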
T4 chain: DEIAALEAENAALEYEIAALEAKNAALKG

P6mS = target: T5, P6mS; test: two-hybrid library CC1; conditions: mean of both orientations;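 also: natural log of median RNA to DNA barcode read ratio; higher means stronger binding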
T5 chain: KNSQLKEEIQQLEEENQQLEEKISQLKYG

P8 = target: T6, P8; test: two-hybrid library CC1; conditions: mean of both orientations;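 also: natural log of median RNA to DNA barcode read ratio; higher means stronger binding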
T6 chain: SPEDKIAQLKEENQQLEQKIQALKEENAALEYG

P8mS = target: T7, P8mS; test: two-hybrid library CC1; conditions: mean of both orientations
T7 chain: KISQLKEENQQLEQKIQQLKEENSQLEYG

P9 = target: T8, P9; test: two-hybrid library CC1; conditions: mean of both orientations
T8 chain: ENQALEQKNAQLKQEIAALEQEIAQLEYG

P7mS = target: T9, P7mS; test: two-hybrid library CC1; conditions: mean of both orientations
T9 chain: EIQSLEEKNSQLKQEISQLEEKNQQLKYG

P7 = target: T10, P7; test: two-hybrid library CC1; conditions: mean of both orientations
T10 chain: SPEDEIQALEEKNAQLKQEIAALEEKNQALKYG

P6SC2 = target: T11, P6SC2; test: two-hybrid library CC1
T11 chain: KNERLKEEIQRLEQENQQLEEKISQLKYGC

4H570-bA = target: T12, 4H570-bA; test: two-hybrid library CCNG1
T12 chain: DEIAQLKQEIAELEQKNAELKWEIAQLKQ

4H850-bA = target: T13, 4H850-bA; test: two-hybrid library CCNG1
T13 chain: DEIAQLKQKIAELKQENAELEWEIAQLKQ

4H591-bA = target: T14, 4H591-bA; test: two-hybrid library CCNG1
T14 chain: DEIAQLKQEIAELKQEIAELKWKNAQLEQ

4H3926-bA = target: T15, 4H3926-bA; test: two-hybrid library CCNG1
T15 chain: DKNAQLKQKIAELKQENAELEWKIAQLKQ

4H3817-bA = target: T16, 4H3817-bA; test: two-hybrid library CCNG1
T16 chain: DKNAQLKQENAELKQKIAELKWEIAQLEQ

4H626-bA = target: T17, 4H626-bA; test: two-hybrid library CCNG1
T17 chain: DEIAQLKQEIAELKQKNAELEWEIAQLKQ

4H3628-bA = target: T18, 4H3628-bA; test: two-hybrid library CCNG1
T18 chain: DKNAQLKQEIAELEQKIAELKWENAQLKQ

4H906-bA = target: T19, 4H906-bA; test: two-hybrid library CCNG1
T19 chain: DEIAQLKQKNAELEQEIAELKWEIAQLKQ

4H3974-bA = target: T20, 4H3974-bA; test: two-hybrid library CCNG1
T20 chain: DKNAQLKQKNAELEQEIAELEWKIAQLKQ

4H3858-bA = target: T21, 4H3858-bA; test: two-hybrid library CCNG1
T21 chain: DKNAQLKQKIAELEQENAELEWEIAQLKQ

B1: O6 (peptide)
chain: DKNAALKAKIAALKYENAALEAKIAALKG
Q: Which interaction score (O7) does the source give for B1 here?
A: Its interaction score is -2.14.

Q: What about the interaction score (O9) of the same binder?
A: The interaction score was -0.62.

Q: What about the interaction score (O6) of the same binder?
A: Its interaction score is -2.52.

Q: And the interaction score (O8)?
A: The interaction score was -1.47.

B2: P6SC2 (peptide)
chain: KNERLKEEIQRLEQENQQLEEKISQLKYGC
Q: How did the interaction score (P6mS) turn out when B2 was run?
A: The interaction score was -2.75.

Q: And the interaction score (P8)?
A: Its interaction score is -1.84.

Q: What about the interaction score (P8mS) of the same binder?
A: Its interaction score is -2.54.

Q: And the interaction score (P9)?
A: The interaction score was -1.47.

Q: And the interaction score (P7mS)?
A: The interaction score was -1.75.

Q: What about the interaction score (P7) of the same binder?
A: Its interaction score is 0.0928.

Q: What about the interaction score (P6SC2) of the same binder?
A: The interaction score was -2.13.

B3: 4H3628-bA (peptide)
chain: DKNAQLKQEIAELEQKIAELKWENAQLKQ
Q: For B3, which interaction score (4H570-bA) is on record?
A: Its interaction score is -0.226.

Q: And the interaction score (4H850-bA)?
A: Its interaction score is 0.124.

Q: What about the interaction score (4H591-bA) of the same binder?
A: The interaction score was -0.511.

Q: And the interaction score (4H3926-bA)?
A: Its interaction score is 0.307.

Q: What about the interaction score (4H3817-bA) of the same binder?
A: The interaction score was 0.612.

Q: And the interaction score (4H626-bA)?
A: The interaction score was -1.6.

Q: What about the interaction score (4H3628-bA) of the same binder?
A: Its interaction score is 0.549.

Q: What about the interaction score (4H906-bA) of the same binder?
A: Its interaction score is -0.866.

Q: And the interaction score (4H3974-bA)?
A: The interaction score was 1.31.

Q: What about the interaction score (4H3858-bA) of the same binder?
A: The interaction score was -0.214.

B4: 4H3858-bA (peptide)
chain: DKNAQLKQKIAELEQENAELEWEIAQLKQ
Q: How did the interaction score (4H570-bA) turn out when B4 was run?
A: The interaction score was 1.16.

Q: What about the interaction score (4H850-bA) of the same binder?
A: Its interaction score is -0.964.

Q: And the interaction score (4H3974-bA)?
A: The interaction score was -0.665.

Q: And the interaction score (4H3858-bA)?
A: Its interaction score is 0.569.
